Assay results published in US20260117202A1.

Experiments:
Assay in all cases: sandwich ELISA, AM14 coated, supernatant 1:10
[1] = biological target: FHM-1 (RSV strain A2) (UniProt P03420)
[2] = biological target: FHM-10 (RSV strain A2) (UniProt P03420)
[3] = biological target: FHM-16 (RSV strain A2) (UniProt P03420)
[4] = biological target: FHM-17 (RSV strain A2) (UniProt P03420)
[5] = biological target: FHM-18 (RSV strain A2) (UniProt P03420)
[6] = biological target: FHM-19 (RSV strain A2) (UniProt P03420)
[7] = biological target: FHM-21 (RSV strain A2) (UniProt P03420)
[8] = biological target: FHM-23 (RSV strain A2) (UniProt P03420)
[9] = biological target: FHM-24 (RSV strain A2) (UniProt P03420)
[10] = biological target: FHM-25 (RSV strain A2) (UniProt P03420)
[11] = biological target: FHM-9 (RSV strain A2) (UniProt P03420)
[12] = biological target: FHS-12 (RSV strain A2) (UniProt P03420)
[13] = biological target: FHS-18 (RSV strain A2) (UniProt P03420)
[14] = biological target: FHS-19 (RSV strain A2) (UniProt P03420)
[15] = biological target: FHS-21 (RSV strain A2) (UniProt P03420)
[16] = biological target: FHS-25 (RSV strain A2) (UniProt P03420)
[17] = biological target: FHS-27 (RSV strain A2) (UniProt P03420)
[18] = biological target: FHS-34 (RSV strain A2) (UniProt P03420)
[19] = biological target: FHS-35 (RSV strain A2) (UniProt P03420)
[20] = biological target: FHS-37 (RSV strain A2) (UniProt P03420)
[21] = biological target: FHS-38 (RSV strain A2) (UniProt P03420)
[22] = biological target: FHS-4 (RSV strain A2) (UniProt P03420)
[23] = biological target: FHS-40 (RSV strain A2) (UniProt P03420)
[24] = biological target: FHS-43 (RSV strain A2) (UniProt P03420)
[25] = biological target: FHS-46 (RSV strain A2) (UniProt P03420)
[26] = biological target: FHS-52 (RSV strain A2) (UniProt P03420)
[27] = biological target: FHS-53 (RSV strain A2) (UniProt P03420)
[28] = biological target: FHS-54 (RSV strain A2) (UniProt P03420)
[29] = biological target: FHS-55 (RSV strain A2) (UniProt P03420)
[30] = biological target: FHS-6 (RSV strain A2) (UniProt P03420)
[31] = biological target: FHS-61 (RSV strain A2) (UniProt P03420)
[32] = biological target: FHS-63 (RSV strain A2) (UniProt P03420)
[33] = biological target: FHS-67 (RSV strain A2) (UniProt P03420)
[34] = biological target: FHS-71 (RSV strain A2) (UniProt P03420)
[35] = biological target: FHS-75 (RSV strain A2) (UniProt P03420)
[36] = biological target: FHS-8 (RSV strain A2) (UniProt P03420)
[37] = biological target: FHS-84 (RSV strain A2) (UniProt P03420)
[38] = biological target: FHS-87 (RSV strain A2) (UniProt P03420)
[39] = biological target: FHS-89 (RSV strain A2) (UniProt P03420)
[40] = biological target: FHS-9 (RSV strain A2) (UniProt P03420)
[41] = biological target: FHS-92 (RSV strain A2) (UniProt P03420)

Q: Which results are given for AM14 monoclonal antibody?
A: OD value [1]: 2.29 OD; OD value [2]: 0.01 OD; OD value [3]: 0.26 OD; OD value [4]: 0.006 OD; OD value [5]: 1.8 OD; OD value [6]: 0.367 OD; OD value [7]: 0.007 OD; OD value [8]: 1.89 OD; OD value [9]: 1.61 OD; OD value [10]: 2.42 OD; OD value [11]: 2.12 OD; OD value [12]: 1.24 OD; OD value [13]: 0.009 OD; OD value [14]: 0.007 OD; OD value [15]: 0.008 OD; OD value [16]: 0.007 OD; OD value [17]: 0.005 OD; OD value [18]: 0.007 OD; OD value [19]: 0.007 OD; OD value [20]: 0.007 OD; OD value [21]: 0.008 OD; OD value [22]: 2.26 OD; OD value [23]: 0.009 OD; OD value [24]: 0.006 OD; OD value [25]: 2.41 OD; OD value [26]: 0.007 OD; OD value [27]: 0.008 OD; OD value [28]: 0.012 OD; OD value [29]: 0.009 OD; OD value [30]: 2.65 OD; OD value [31]: 0.008 OD; OD value [32]: 0.006 OD; OD value [33]: 1.86 OD; OD value [34]: 0.012 OD; OD value [35]: 0.028 OD; OD value [36]: 0.013 OD; OD value [37]: 1.01 OD; OD value [38]: 0.239 OD; OD value [39]: 0.006 OD; OD value [40]: 0.009 OD; OD value [41]: 0.012 OD
